Assay results: article PMC5391958, “New function of aldoxime dehydratase: Redox catalysis and the formation of an expected product” (PLoS ONE, 2017)

What was measured:
Assay in all cases: purified protein
Format in all cases: biochemical, Pseudomonas chlororaphis
[1] = test system: T1, CCn1c(=NN=c2sc3cc(S(=O)(=O)O)ccc3n2CC)sc2cc(S(=O)(=O)O)ccc21; conditions: apparent
T1 construct: recombinant from pET-oxdA (mutants in pET-24a(+)), E. coli BL21-CodonPlus(DE3)-RIL, purified heme enzyme; Mr 40,127; no tag mentioned

[2] = test system: T2, COc1ccccc1O; conditions: apparent
T2 construct: recombinant from pET-oxdA (mutants in pET-24a(+)), E. coli BL21-CodonPlus(DE3)-RIL, purified heme enzyme; Mr 40,127; no tag mentioned

[3] = substrate: CCn1c(=NN=c2sc3cc(S(=O)(=O)O)ccc3n2CC)sc2cc(S(=O)(=O)O)ccc21; conditions: apparent, 25 mM H2O2, 100 mM potassium phosphate pH 7.0, 30°C
[4] = substrate: COc1ccccc1O; conditions: apparent, 100 mM H2O2, 100 mM potassium phosphate pH 7.0, 30°C
[5] = 10 mM H2O2, 100 mM potassium phosphate pH 7.0, 30°C
[6] = 25 mM H2O2, 100 mM potassium phosphate pH 7.0, 30°C
[7] = 100 mM H2O2, 100 mM potassium phosphate pH 7.0, 30°C

What does the source list for “OxdA(WT); aldoxime dehydratase (OxdA) (Pseudomonas chlororaphis subsp. chlororaphis; H320A)”?
Km [1, 5]: 210 ± 30 µM; Vmax [1, 5]: 1.3 µmol/min/mg; kcat [1, 5]: 0.85 ± 0.07 s⁻¹; kcat/Km [1, 5]: 4000 M⁻¹ s⁻¹; Km [2, 6]: 840 ± 170 µM; Vmax [2, 6]: 1.2 µmol/min/mg; kcat [2, 6]: 0.81 ± 0.05 s⁻¹; kcat/Km [2, 6]: 970 M⁻¹ s⁻¹

With “OxdA(WT); aldoxime dehydratase (OxdA) (Pseudomonas chlororaphis subsp. chlororaphis; H320D)” as the molecule, how does the Km [1, 6] read?
The Km was 120 ± 20 µM.

And the Vmax [1, 6]?
The Vmax was 33 µmol/min/mg.

What about the kcat [1, 6] of the same molecule?
The kcat was 22 ± 1 s⁻¹.

And the kcat/Km [1, 6]?
Its kcat/Km is 190000 M⁻¹ s⁻¹.

And the Km [2, 7]?
The Km was 1000 ± 400 µM.

What about the Vmax [2, 7] of the same molecule?
The Vmax was 50 µmol/min/mg.

What about the kcat [2, 7] of the same molecule?
The kcat was 33 ± 3 s⁻¹.

And the kcat/Km [2, 7]?
Its kcat/Km is 32000 M⁻¹ s⁻¹.

B1: OxdA(WT); aldoxime dehydratase (OxdA) (Pseudomonas chlororaphis subsp. chlororaphis) (protein)
chain: MESAIDTHLKCPRTLSRRVPEEYQPPFPMWVARADEQLQQVVMGYLGVQYRGEAQREAALQAMRHIVSSFSLPDGPQTHDLTHHTDSSGFDNLMVVGYWKDPAAHCRWLRSAEVNDWWTSQDRLGEGLGYFREISAPRAEQFETLYAFQDNLPGVGAVMDSTSGEIEEHGYWGSMRDRFPISQTDWMKPTNELQVVAGDPAKGGRVVIMGHDNIALIRSGQDWADAEAEERSLYLDEILPTLQDGMDFLRDNGQPLGCYSNRFVRNIDLDGNFLDVSYNIGHWRSLEKLERWAESHPTHLRIFVTFFRVAAGLKKLRLYHEVSVSDAKSQVFEYINCHPHTGMLRDAVVAPT
notes: recombinant from pET-oxdA (mutants in pET-24a(+)), E. coli BL21-CodonPlus(DE3)-RIL, purified heme enzyme; Mr 40,127; no tag mentioned
Which Km [3] does the source give for B1 here?
The Km was 210 ± 40 µM.

What about the Vmax [3] of the same molecule?
The Vmax was 3.4 µmol/min/mg.

What about the kcat [3] of the same molecule?
Its kcat is 2.3 ± 0.1 s⁻¹.

And the kcat/Km [3]?
Its kcat/Km is 11000 M⁻¹ s⁻¹.

And the Km [4]?
The Km was 26 ± 10 µM.

What about the Vmax [4] of the same molecule?
The Vmax was 20 µmol/min/mg.

And the kcat [4]?
The kcat was 14 ± 1 s⁻¹.

And the kcat/Km [4]?
The kcat/Km was 530000 M⁻¹ s⁻¹.
